The subject of one series is O=C(O)c1ccc2c(c1)OCO2. The series is described as follows: purified protein. In kind it is biochemical, Neurospora crassa. The note with it: apparent, ATP, NADPH, MgCl2, MES buffer pH 6.0, 28 °C, substrate in water with equimolar KOH.
Series [1] concerns the target T1, NcCAR (Neurospora crassa, UniProt Q7RW48).
T1 construct: gene NCU05000; full length, codon-optimized gene, N-terminal TEV-cleavable His-tag (removed for kinetics), pETDUET1, co-expressed with E. coli phosphopantetheinyl transferase (CAQ31055.1) in E. coli BL21 (DE3) Star; 120 kDa
The series can be described thus: spectrophotometric NADPH depletion assay, […] nm, initial rates. The series is classed as biochemical. The note with it: apparent, ATP, MgCl2, MES buffer pH 6.0, 28 °C, 5% v/v DMSO.

In series [2] the target is T1, NcCAR. The series can be described thus: time-resolved […] NMR of cinnamic acid reduction; relief of inhibition by pyrophosphatase. Particulars: co-product inhibition, inferred, ATP, NADPH, MgCl2, Tris-HCl pH 7.5. The series is classed as biochemical.

T1 sequence (Q7RW48 whole entry): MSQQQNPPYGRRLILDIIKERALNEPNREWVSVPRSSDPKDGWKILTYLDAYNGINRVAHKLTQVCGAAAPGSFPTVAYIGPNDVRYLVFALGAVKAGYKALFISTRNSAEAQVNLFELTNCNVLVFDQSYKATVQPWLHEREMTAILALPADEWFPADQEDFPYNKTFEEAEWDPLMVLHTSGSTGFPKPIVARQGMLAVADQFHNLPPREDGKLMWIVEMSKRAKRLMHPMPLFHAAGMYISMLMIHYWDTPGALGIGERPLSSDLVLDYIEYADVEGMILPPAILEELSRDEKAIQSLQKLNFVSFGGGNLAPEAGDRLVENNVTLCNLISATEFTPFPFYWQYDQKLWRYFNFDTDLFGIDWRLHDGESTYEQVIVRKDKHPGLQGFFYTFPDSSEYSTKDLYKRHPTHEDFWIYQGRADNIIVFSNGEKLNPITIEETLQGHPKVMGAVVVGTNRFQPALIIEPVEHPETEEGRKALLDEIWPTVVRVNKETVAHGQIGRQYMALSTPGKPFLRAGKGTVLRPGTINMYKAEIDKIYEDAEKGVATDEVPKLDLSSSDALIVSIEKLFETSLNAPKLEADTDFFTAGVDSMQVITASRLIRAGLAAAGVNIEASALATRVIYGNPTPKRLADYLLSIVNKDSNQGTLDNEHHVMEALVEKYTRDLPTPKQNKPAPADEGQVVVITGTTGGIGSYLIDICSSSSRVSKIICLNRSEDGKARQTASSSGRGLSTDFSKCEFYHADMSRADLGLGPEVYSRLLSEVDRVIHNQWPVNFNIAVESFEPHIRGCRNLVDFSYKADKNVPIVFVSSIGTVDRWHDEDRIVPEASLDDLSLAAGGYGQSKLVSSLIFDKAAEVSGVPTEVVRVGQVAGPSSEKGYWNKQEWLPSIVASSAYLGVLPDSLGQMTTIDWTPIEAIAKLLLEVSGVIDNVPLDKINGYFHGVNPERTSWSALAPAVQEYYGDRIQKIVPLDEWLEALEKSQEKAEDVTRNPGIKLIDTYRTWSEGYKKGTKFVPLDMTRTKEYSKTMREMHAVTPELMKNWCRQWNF

With NcCAR (Neurospora crassa OR74A), in the series on O=C(O)c1ccc2c(c1)OCO2, the Km (commonly the substrate concentration at which the rate is half of its maximum) is 173 ± 22 µM; the kcat – broadly, the number of substrate molecules converted per active site and unit of time at saturation – was 7.46 s⁻¹. In the case of `O=C(O)/C=C/c1ccccc1` [1a, cinnamic acid], the Km on NcCAR [1] was 445 ± 50 µM. On to `O=P(O)(O)OP(=O)(O)O` [pyrophosphate], for which the “time-resolved 31P NMR of cinnamic acid reduction; relief of inhibition by pyroph” value at NcCAR [2] is “these results indicate the inhibition of NcCAR by the co‐product pyrophosphate”.

Source of the values: PMC5129534, “Selective Enzymatic Transformation to Aldehydes in vivo by Fungal Carboxylate Reductase from Neurospora crassa” (Advanced Synthesis & Catalysis, 2016).
